Drawing on patent US11472855, “RNA-binding protein” (Panitch Schwarze Belisario & Nadel LLP), this text covers binding result and binding signal for two molecules.

Common to all, as to settings: label: Alexa680 at 5' and 3'
The target of data set [1] is T1, hPUF_MT(R8_N12S,Q16R, R3→R5, R4→R6) (R8 repeat N12S,Q16R).
T1 chain: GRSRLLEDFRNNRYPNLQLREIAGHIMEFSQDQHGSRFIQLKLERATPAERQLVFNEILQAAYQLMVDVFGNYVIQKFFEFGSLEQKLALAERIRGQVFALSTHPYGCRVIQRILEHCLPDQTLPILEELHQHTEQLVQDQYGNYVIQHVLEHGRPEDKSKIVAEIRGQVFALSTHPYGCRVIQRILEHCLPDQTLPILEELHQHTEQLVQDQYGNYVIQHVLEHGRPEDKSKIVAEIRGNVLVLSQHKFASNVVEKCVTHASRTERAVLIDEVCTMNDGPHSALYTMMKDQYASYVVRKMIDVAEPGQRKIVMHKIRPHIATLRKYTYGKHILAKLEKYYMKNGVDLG
Kind of data set: EMSA; C>>G.

Another data set deals with T2, hPUF_MT(R3→R5, R4→R6).
T2 chain: T1 chain with S295N, R299Q
The experiment in a line: EMSA; binds U exclusively at R8 position.

Data set [2] concerns the target T3, hPUF_MT(R5:A_13R)(R5:A_13Y)2(R6:U_13Y)3.
T3 chain: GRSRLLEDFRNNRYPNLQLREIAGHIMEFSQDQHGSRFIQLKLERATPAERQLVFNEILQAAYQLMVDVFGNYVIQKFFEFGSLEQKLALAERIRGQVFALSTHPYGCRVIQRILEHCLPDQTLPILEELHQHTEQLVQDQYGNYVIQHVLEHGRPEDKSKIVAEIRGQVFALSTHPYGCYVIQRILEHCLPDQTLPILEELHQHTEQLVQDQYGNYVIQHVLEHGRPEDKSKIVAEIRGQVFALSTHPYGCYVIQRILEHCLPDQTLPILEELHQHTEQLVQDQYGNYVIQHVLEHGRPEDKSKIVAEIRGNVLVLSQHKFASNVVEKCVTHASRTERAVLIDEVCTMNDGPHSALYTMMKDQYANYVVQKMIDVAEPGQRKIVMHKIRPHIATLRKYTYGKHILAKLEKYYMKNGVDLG
The experiment in a line: EMSA; equivalent.

Data set [3] concerns the target T4, hPUF_MT(1-2-5-6-5-6-5-6-7-8) / (R5:A_13R)3(R6:U_13Y)3.
T4 chain: T3 chain with Y181R, Y253R
The experiment in a line: EMSA; Example 2-5 reported comparable to WT.

Substitutions are numbered along the chain they refer to.

CCAGAAUCGUAUAUAUUCG (ssRNA) [OTS-2035]: the binding result is on record as “binds” in data set [1] and “no binding” with hPUF_MT(R3→R5, R4→R6).
For CCAGAAUUGUAUAUAUAUUCG (ssRNA) [OTS-1844], the binding signal was ~1 fold of 13R protein in data set [2] and ~10 fold of WT in data set [3].
